Source: publication PMC7314969, “Natural Transformation in Deinococcus radiodurans: A Genetic Analysis Reveals the Major Roles of DprA, DdrB, RecA, RecF, and RecO Proteins”

T1: DprA (DrDprA) (Deinococcus radiodurans R1 ATCC 13939, UniProt Q9RY31 1-370)
T1 sequence: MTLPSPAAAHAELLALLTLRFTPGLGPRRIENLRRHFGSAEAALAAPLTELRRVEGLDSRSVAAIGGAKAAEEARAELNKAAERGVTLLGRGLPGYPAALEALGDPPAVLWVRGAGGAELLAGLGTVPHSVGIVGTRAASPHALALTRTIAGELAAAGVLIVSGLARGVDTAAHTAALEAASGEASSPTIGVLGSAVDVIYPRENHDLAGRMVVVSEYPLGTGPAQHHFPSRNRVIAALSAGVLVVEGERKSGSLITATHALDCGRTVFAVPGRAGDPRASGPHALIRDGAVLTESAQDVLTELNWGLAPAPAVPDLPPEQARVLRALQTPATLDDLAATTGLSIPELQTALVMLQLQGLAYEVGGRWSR


Each binder was assayed against T1, DprA (DrDprA) (assay: fluorescence anisotropy; 2.5 mM Mg2+; apparent Kd; 25 mM NaCl, 20 mM Tris pH 7.5, 2.5 mM MgCl2, 2.5% (v/v) glycerol, 25 nM 5'-fluorescein ssDNA, 20 C; 35-mers of varying GC content (Fig. 5B) also tested, affinity rises with GC, but number, sequences and values not in the material). Details: protein: recombinant; tags: C-terminal His6; chain copies: 2; label: 5'-fluorescein.

| Binder | Kd [nM] |
| --- | --- |
| TTTTTTTTTTTTTTTTTTTT (ssDNA) [dT20] | 7500 |
| TTTTTTTTTTTTTTTTTTTTTTTTTTTTTTTTTTTTTTTTTTTTTTTTTT (ssDNA) [dT50] | 1200 |
| dT100 (ssDNA) DNA: TTTTTTTTTTTTTTTTTTTTTTTTTTTTTTTTTTTTTTTTTTTTTTTTTTTTTTTTTTTTTTTTTTTTTTTTTTTTTTTTTTTTTTTTTTTTTTTTTTTT | 1000 |
